Test results reported in patent US7919579B2, “Imaging and therapeutic targeting of prostate and bladder tissues” (The Board of Regents of the University of Texas System, priority 2006, dated 2011).
“Also recorded” adds a separate entry of the source.

Experiments:
in vivo [1] = assay: in vivo; set-up: species or system nude mice; details: nude, mouse
Experimental: Peptides may be radiolabeled with ^18F or ^64Cu for in vitro and in vivo PET imaging evaluations. The peptides may be prepared using standard F-moc chemistry on an automated peptide synthesizer. Pharmacokinetic parameters of ^64Cu-labeled R11, the lead peptide, were evaluated by the inventors in preliminary experiments by using a two-compartment model. […] However, due to the unknown mechanism of the peptide specificity, it is reasonable to assume that a longer circulation time in the blood is preferable to enhance the image contrast. […]
The tissue distribution of the radiolabeled peptides or peptide conjugates may be evaluated in normal nude mice. […] At selected time points post-injection, animals may be sacrificed, and organs of interest removed, weighed, and counted. The percent injected dose per gram (% ID/g) and percent injected dose per organ (% ID/organ) can be calculated by comparison to a weighed, counted, standard. […] Specifically, blood (10-20-μL) can be drawn from the retroorbital sinus of the animals at 5-min, 10-min, 20-min, and 40-min, and counted on a gamma counter.
The pharmacokinetics of the ^64Cu-labeled peptide was also evaluated by using a two-compartment model. […]

T24 lung metastases = details: mouse, in vivo
Experimental: (§1) The tumor-bearing animal model was established by injecting into the left flank of each nude mouse subcutaneously with human T24 cell suspension (2×10^6 cells in 100-μL of medium). The tumors were allowed to grow for 42 days prior to PET imaging. […] The microPET imaging studies were performed using the microPETR4 rodent scanner (Concorde Microsystems, Knoxville, Tenn.). The scanner provides a 10×8 cm field of view, and the scanner is currently capable of an axial and transaxial resolution of 2 mm, with an absolute sensitivity of 900 counts per second per μCi. Images were reconstructed using Fourier rebinning followed by two-dimensional filtered back projection. […] At 15 min, 60 min, and 4 hr post injection (p.i.), the mice were anesthetized and immobilized in a supine position on a support bed with attached anesthetic gas nose cones for data collection. The imaging collection time was 10 min.
(§2) After the 4-hr microPET imaging, the animals were sacrificed. The lungs were removed from both mice. […] The harvested lungs were imaged by microPET again.

in vivo [2] = details: nude, mouse, iv, uptake of control lungs
Experimental: as §1, §2

[3] = biodistribution of ^64Cu-DOTA-R11 in normal nude mice; format: in vivo; details: 5-10 μCi; % ID/g
Experimental: FIG. 6—Biodistribution data of ^64Cu-DOTA-R11 in normal nude mice (n=4). Data are presented as % ID/g±s.d. SV: seminal vesicle; CG: coagulation gland.
The injected dose of ^64Cu-DOTA-R11 in the biodistribution studies was in range of 5-10 μCi. The animals were sacrificed at specific time points (n=4 at each time point). Organs of interest were removed, weighed, and counted. Standards were prepared and counted along with the samples to calculate the percent injected dose per gram tissue (% ID/g).
In order to explore the application of R11 for the detection of bladder cancer metastasis via PET, the inventors conjugated this peptide with a bifunctional chelator, DOTA (1,4,7,10-tetraazacyclododecane-1,4,7,10-tetraacetic acid), so that R11 could be radiolabeled with ^64Cu. […] The radiolabeled peptide was purified via a C-18 cartridge (Millipore) to have >95% radiochemical purity as determined by radio-TLC and HPLC prior to the biodistribution and PET imaging studies. […] Organs of interest were removed, weighed, and counted. Standards were prepared and counted along with the samples to calculate the percent injected dose per gram tissue (% ID/g). […] In addition, the pharmacokinetics of the ^64Cu-labeled peptide was also evaluated by using a two-compartment model.

in vivo [4] = assay: in vivo; set-up: species or system nude mice; details: nude, mouse; remark: listed apart in the source
From the text: The lungs were removed from both mice. […] The harvested lungs were imaged by microPET again.

## N=C(N)NCCCC(NC(=O)C(CCCNC(=N)N)NC(=O)C(CCCNC(=N)N)NC(=O)C(CCCNC(=N)N)NC(=O)C(CCCNC(=N)N)NC(=O)C(CCCNC(=N)N)NC(=O)C(CCCNC(=N)N)NC(=O)C(CCCNC(=N)N)NC(=O)C(CCCNC(=N)N)NC(=O)C(CCCNC(=N)N)NC(=O)C(CCCNC(=N)N)NC(=O)CNC(=O)CN1CCN(CC(=O)O)CCN(CC(=O)O)CCN(CC(=O)O)CC1)C(=O)O (stereo not shown) [^64Cu-DOTA-R11, DOTA-G-RRRRRRRRRRR, metal not drawn]
In vivo [1]; elimination half life from other organs (the secondary compartment)
  half-life: 17.2 h
In vivo [1]; half-life in the blood (the primary compartment)
  half-life: ~0.178 h
T24 lung metastases
  ex vivo microPET and autoradiography of lungs with T24 metastases: elevated uptake
In vivo [2]
  tissue uptake at 0.25 h: < 4 %ID/g
[3]
  accumulation in prostate and bladder: strong tendency to accumulate in prostate and bladder
  uptake in other organs (blood, lungs, liver, spleen, kidneys, muscle): remarkably low uptake in other organs; also recorded: remarkably low uptake by other organs
In vivo [4]
  tissue to tissue ratio: > 8
